One assay relates to DYT-TOR1A MEF EVs. The assay can be described thus: Quantitative LC-MS/MS proteomics of EVs from drug-treated DYT-TOR1A MEF cultures (ritonavir, salubrinal). The class given is cell-based, mouse. On the set-up: key to RTV Corrective Direction / RTV Corrective Direction, Grwd1 / RTV Corrective Direction, Srrm2 / RTV Corrective Direction, Rbm17 / RTV Corrective Direction, Dcaf8 / RTV Corrective Direction, Edil3 / RTV Corrective Direction, Timp3 / RTV Corrective Direction, Heatr3 / RTV Corrective Direction, Brd4 / RTV Corrective Direction, P3h4 / RTV Corrective Direction, Pacsin3 / RTV Corrective Direction, Naa50 / RTV Corrective Direction, Lpar6 / RTV Corrective Direction, Ndrg1 / RTV Corrective Direction, Kntc1 / RTV Corrective Direction, Cdk11b / RTV Corrective Direction, Sumo1 / RTV Corrective Direction, Lsm4 / RTV Corrective Direction, Hmga2 / RTV Corrective Direction, Cstf1 / RTV Corrective Direction, Tes / RTV Corrective Direction, Sbno1 / RTV Corrective Direction, Unc119b / RTV Corrective Direction, Cfdp1 / RTV Corrective Direction, Sec61b: YES = protein abundance effect opposite to DYT/WT. The conditions noted are these: EV protein abundance; for RTV Corrective Direction: DYT + RTV (ritonavir) vs DYT, direction compared with DYT/WT; for DYT + RTV/DYT Cohen's d: ritonavir (RTV)-treated DYT vs DYT.

The next assay concerns WT MEF EVs. The assay can be described thus: Quantitative LC-MS/MS proteomics of EVs from ISRIB-treated WT MEF cultures. The class given is cell-based, mouse. Also noted: key to ISRIB and DYT Parallel Direction / ISRIB and DYT Parallel Direction, Ctdsp1 / ISRIB and DYT Parallel Direction, Pcdh19 / ISRIB and DYT Parallel Direction, Tspan7 / ISRIB and DYT Parallel Direction, Myo1e / ISRIB and DYT Parallel Direction, Plpp3 / ISRIB and DYT Parallel Direction, Sh3bp4 / ISRIB and DYT Parallel Direction, Dnajc7 / ISRIB and DYT Parallel Direction, Drg1 / ISRIB and DYT Parallel Direction, Maea: YES = protein abundance effect similar to DYT/WT. The conditions noted are these: EV protein abundance; for WT + ISRIB/WT Cohen's d: ISRIB-treated WT vs WT; for ISRIB and DYT Parallel Direction: WT + ISRIB vs WT, direction compared with DYT/WT.

B1: Upf1 (protein, UniProt Q9EPU0 1-1124, looked up)
Regulator of nonsense …: MSVEAYGPSSQTLTFLDTEEAELLGADTQGSEFEFTDFTLPSQTQTPPGGPGGAGGPGGAGAGGAAGQLDAQVGPEGILQNGAVDDSVAKTSQLLAELNFEEDEEDTYYTKDLPVHACSYCGIHDPACVVYCNTSKKWFCNGRGNTSGSHIVNHLVRAKCKEVTLHKDGPLGETVLECYNCGCRNVFLLGFIPAKADSVVVLLCRQPCASQSSLKDINWDSSQWQPLIQDRCFLSWLVKIPSEQEQLRARQITAQQINKLEELWKENPSATLEDLEKPGVDEEPQHVLLRYEDAYQYQNIFGPLVKLEADYDKKLKESQTQDNITVRWDLGLNKKRIAFFTLPKTDSGNEDLVIIWLRDMRLMQGDEICLRYKGDLAPLWKGIGHVIKVPDNYGDEIAIELRSSVGAPVEVTHNFQVDFVWKSTSFDRMQSALKTFAVDETSVSGYIYHKLLGHEVEDVVIKCQLPKRFTAQGLPDLNHSQVYAVKTVLQRPLSLIQGPPGTGKTVTSATIVYHLARQGNGPVLVCAPSNIAVDQLTEKIHQTGLKVVRLCAKSREAIDSPVSFLALHNQIRNMDSMPELQKLQQLKDETGELSSADEKRYRALKRTAERELLMNADVICCTCVGAGDPRLAKMQFRSILIDESTQATEPECMVPVVLGAKQLILVGDHCQLGPVVMCKKAAKAGLSQSLFERLVVLGIRPIRLQVQYRMHPALSAFPSNIFYEGSLQNGVTAADRVKKGFDFQWPQPDKPMFFYVTQGQEEIASSGTSYLNRTEAANVEKITTKLLKAGAKPDQIGIITPYEGQRSYLVQYMQFSGSLHTKLYQEVEIASVDAFQGREKDFIILSCVRANEHQGIGFLNDPRRLNVALTRARYGVIIVGNPKALSKQPLWNHLLSYYKEQKALVEGPLNNLRESLMQFSKPRKLVNTVNPGARFMTTAMYDAREAIIPGSVYDRSSQGRPSNMYFQTHDQISMISAGPSHVAAMNIPIPFNLVMPPMPPPGYFGQANGPAAGRGTPKTKTGRGGRQKNRFGLPGPSQTTLPNSQASQDVASQPFSQGALTQGYVSMSQPSQMSQPGLSQPELSQDSYLGDEFKSQIDVALSQDSTYQGERAYQHGGVTGLSQY
Consider B1, for which, in the assay on DYT-TOR1A MEF EVs, the “RTV Corrective Direction” value is given as “YES” and the “DYT + RTV/DYT Cohen's d” value is 4.24. For the same molecule, in the assay on WT MEF EVs, the “WT + ISRIB/WT Cohen's d” value was −1.84; the “ISRIB and DYT Parallel Direction” value was “YES”.

B2: Hnrnpl (protein, UniProt P14866 1-589, looked up)
Heterogeneous nuclear …: MSRRLLPRAEKRRRRLEQRQQPDEQRRRSGAMVKMAAAGGGGGGGRYYGGGSEGGRAPKRLKTDNAGDQHGGGGGGGGGAGAAGGGGGGENYDDPHKTPASPVVHIRGLIDGVVEADLVEALQEFGPISYVVVMPKKRQALVEFEDVLGACNAVNYAADNQIYIAGHPAFVNYSTSQKISRPGDSDDSRSVNSVLLFTILNPIYSITTDVLYTICNPCGPVQRIVIFRKNGVQAMVEFDSVQSAQRAKASLNGADIYSGCCTLKIEYAKPTRLNVFKNDQDTWDYTNPNLSGQGDPGSNPNKRQRQPPLLGDHPAEYGGPHGGYHSHYHDEGYGPPPPHYEGRRMGPPVGGHRRGPSRYGPQYGHPPPPPPPPEYGPHADSPVLMVYGLDQSKMNCDRVFNVFCLYGNVEKVKFMKSKPGAAMVEMADGYAVDRAITHLNNNFMFGQKLNVCVSKQPAIMPGQSYGLEDGSCSYKDFSESRNNRFSTPEQAAKNRIQHPSNVLHFFNAPLEVTEENFFEICDELGVKRPSSVKVFSGKSERSSSGLLEWESKSDALETLGFLNHYQMKNPNGPYPYTLKLCFSTAQHAS
As to B2, in the assay with DYT-TOR1A MEF EVs, the “RTV Corrective Direction” value is recorded as “YES” and the “DYT + RTV/DYT Cohen's d” value is listed as 6.17. For the same molecule, in the assay with WT MEF EVs, the “WT + ISRIB/WT Cohen's d” value is −0.32; the “ISRIB and DYT Parallel Direction” value is listed as “YES”.

B3: Pbdc1 (protein, UniProt Q9D0B6 1-198, looked up)
Protein PBDC1: MDAAGESEEPVSGEALSIAHALSHPPESYGNDPDIEMAWAIRAMQHAEVYYKLISSVDPQFLKLTKVDDQIYSEFREIFETLRVDVLDPEELKSESAKEKWRPFCLKFEGIVEDYNYGTLLRLDCSQGYTEENTIFAPRIQFFAIEIARNREGYNKAVSVSIQDKEGEEGAGNKEEAAEKGADSGGEKEEGANREGEK
With B3, in the assay with DYT-TOR1A MEF EVs, the “RTV Corrective Direction” value is given as “YES” and the “DYT + RTV/DYT Cohen's d” value was determined as 3.36. Further, in the assay with WT MEF EVs, the “WT + ISRIB/WT Cohen's d” value is given as −1.06; the “ISRIB and DYT Parallel Direction” value is “YES”.

B4: Eif4g2 (protein, UniProt Q62448 1-906, looked up)
Eukaryotic translation …: MESAIAEGGASRFSASSGGGGSRGAPQHYPKTAGNSEFLGKTPGQNAQKWIPARSTRRDDNSAANNSANEKERHDAIFRKVRGILNKLTPEKFDKLCLELLNVGVESKLILKGVILLIVDKALEEPKYSSLYAQLCLRLAEDAPNFDGPAAEGQPGQKQSTTFRRLLISKLQDEFENRTRNVDVYDKRENPLLPEEEEQRAIAKIKMLGNIKFIGELGKLDLIHESILHKCIKTLLEKKKRVQLKDMGEDLECLCQIMRTVGPRLDHERAKSLMDQYFARMCSLMLSKELPARIRFLLQDTVELREHHWVPRKAFLDNGPKTINQIRQDAVKDLGVFIPAPMAQGRSDFFLEGPFMPPRMKMDRDPLGGLADMFGQMPGSGIGTGPGVIQDRFSPTMGRHRSNQLFNGHGGHIMPPTQSQFGEMGGKFMKSQGLSQLYHNQSQGLLSQLQGQSKDMPPRFSKKGQLNADEISLRPAQSFLMNKNQVPKLQPQITMIPPSAQPPRTQTPPLGQTPQLGLKTNPPLIQEKPAKTSKKPPPSKEELLKLTEAVVTDYLNSGNANDAVSGVREMRAPKHFLPEMLSKVIILSLDRSDEDKEKASSLISLLKQEGIATSDNFMQAFLNVLEQCPKLEVDIPLVKSYLAQFAARAIISELVSISELAQPLESGTHFPLFLLCLQQLAKLQDREWLTELFQQSKVNMQKMLPEIDQNKDRMLEILEGKGLSFLFPLLKLEKELLKQIKLDPSPQTIYKWIKDNISPKLHVDKGFVNILMTSFLQYISSEVSPPSDETDSSSAPSKEQLEQEKQLLLSFKPVMQKFLHDHVDLQVSALYALQVHCYNSSFPKGMLLRFFVHFYDMEIIEEEAFLAWKEDITQEFPGKGKALFQVNQWLTWLETAEEEESEEEAD
Turning to B4, in the assay on DYT-TOR1A MEF EVs, the “RTV Corrective Direction” value is recorded as “YES” and the “DYT + RTV/DYT Cohen's d” value stood at 2.79. Further, in the assay with WT MEF EVs, the “WT + ISRIB/WT Cohen's d” value is given as −3.04; the “ISRIB and DYT Parallel Direction” value is recorded as “YES”.

B5: Dpp3 (protein, UniProt Q99KK7 2-738, looked up)
Dipeptidyl peptidase 3: ADTQYILPNDIGVSSLDCREAFRLLSPTERLYAHHLSRAAWYGGLAVLLQTSPEAPYIYALLSRLFRAQDPDQLRQHALAEGLTEEEYQAFLVYAAGVYSNMGNYKSFGDTKFVPNLPKDKLGRVILGSKAAQQRPEEVRDLWQTCGDLMFSLEPRLRHLGLGKEGVTTYFSGDCTMEDAKLAQDFLDSQNLSAYNTRLFKVVGQEGKSHYEVRLASVLNTDPALDSELTSKLKRYEFQGNHFQVTRGDYAPILQKVVEHLEKAKAYAANSHQEQMLAQYVESFTQGSIEAHKRGSRFWIQDKGPIVESYIGFIESYRDPFGSRGEFEGFVAMVNKAMSAKFERLVASAEQLLKELPWPLAFEKDKFLTPDFTSLDVLTFAGSGIPAGINIPNYDDLRQTEGFKNVSLGNVLAVAYAAKREKLTFLEEEDKDLYIRWKGPSFDVQVGLHELLGHGSGKLFVQDEKGAFNFDKETVINPETGEQIQSWYRSGETWDSKFSTIASSYEECRAESVGLYLCLNPQVLEIFGFEGADAEDVIYVNWLNMVRAGLLALEFYTPEAANWRQAHMQARFVILRVLLEAGEGLVTVTPTTGSDGRPDARVRLDRSKIRSVGRPALERFLRRLQVLKSTGDVVAGRALYEGYAAVTDAPPECFLTLRDTVLLRKESRKLIVQPNTRLEGSEVQLVEYEASAAGLIRSFCERFPEDGPELEEVLIQLAAADARFWRNQAQEAPPGQA
Turning to B5, in the assay on DYT-TOR1A MEF EVs, the “RTV Corrective Direction” value is reported as “YES” and the “DYT + RTV/DYT Cohen's d” value stood at 5.13. Besides, in the assay on WT MEF EVs, the “WT + ISRIB/WT Cohen's d” value was −1.56; the “ISRIB and DYT Parallel Direction” value is listed as “YES”.

The values are drawn from patent US20260266848A1, “COMPOSITIONS AND METHODS FOR DIAGNOSING AND TREATING DYSTONIA” (Duke University, priority 2023, published 2026).
